Laboratory results taken from patent US20190211104A1 (Merck KGaA, published 2019).

Target: T1, carboxyterminal peptide of PD-L1 (SEQ ID NO: 1, RLRKGRMMDVKKCGIQDTNSKKQSDTHLEET) (human)
T1 construct: The immunogen was the KLH-coupled peptide; also called immunogen
T1 peptide: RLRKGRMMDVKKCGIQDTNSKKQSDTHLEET
Assay: ELISA, wells coated with the peptide immunogen

B1: inventive antibody clone MKP1A07310 (rabbit monoclonal recombinant anti-PD-L1 antibody) (antibody, V domains shown)
VH: QEQLVESGGGLVTPGGSLTLTCTVSTIDLSTFAISWVRQAPGKGLEWIGTINTDLTTYYVNWAKGRFTISKTSSTTVDLKMTGLTIEDTATYFCARKLFGNGNVWGPGTLVTVSS
VL: QVLTQTPSPVSASVGSTVTINCQASQSLHRNNYLSWFQQKPGQPPKQLIYQASTLASGVSSRFSGSGSGTQFTLTISDVVCDDAATYYCLGGVSGGPYPFGGGTEVVVKG
notes: Rabbit monoclonal, produced as recombinant antibody in HEK-293 cells; VH 110, VL 111) and calls clone MKP1A07310 'the inventive antibody'; also called MKP1A7310; MKP-1A-73-10
B1: binds.
